The series can be described thus: protein stability index of a GFP-peptide fusion (GPS, HEK-293T) (PSI 1-6); higher = more stable.
The mark [1] stands for this setting: treatment: DMSO, c terminus: a fixed tail appended.
The mark [2] stands for this setting: treatment: MLN4924 1 uM, 8 h, c terminus: a fixed tail appended.

± gives the standard deviation.
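Further: 24-mer peptide tiles fused after GFP, lentivirally expressed, FACS-sorted into six equal bins by GFP/DsRed ratio, decoded by Illumina sequencing, PSI is the read-weighted mean bin number.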

For the sequence RVEASHLTTSQERELGIRQRDEQL [FBF1], the protein stability index runs as follows: under setting [1], 4.91 ± 0.22; under setting [2], 5.13 ± 0.22.
On to RVEVLTDAGGWVLIDRSGRHFGTI [KCTD13], for which the protein stability index by setting is: under setting [1], 2.37 ± 0.46; under setting [2], 2.38 ± 0.7.
The like results for RVRTVLNEKQLHTLRTCYAANPRP [ISL2] were, in that order, 2.74 ± 0.27 and 2.96 ± 0.2.
The matching figures for RVRVELQEQNGRLQAELAAQEALR [LRRC45]: 4.58 ± 0.079 and 3.98 ± 0.55.
The like results for RYADLEAVNRARRPLARPIKPNEI [RHOBTB2] were, in that order, 3.77 ± 0.21 and 3.7 ± 0.22.
Consider RYHVIRKLGWGHFSTVWLCWDMQG [SRPK2], for which the protein stability index is 2.83 ± 0.74 under setting [1] and 2.69 ± 0.27 under setting [2].
The matching figures for RYLFEEDNLLRSTQKLSHSTKPSG [MATN2]: 3.82 ± 0.3 and 3.92 ± 0.3.
On to RYPTISMVKPLLHMLLNTTLNIKE [ZBED1], for which the protein stability index came out at 2.83 ± 0.58 under setting [1] and 3.37 ± 0.72 under setting [2].
The matching figures for RYQHGIAVIGNFLYVVGGQSNYDT [KLHL13]: 2.42 ± 0.49 and 2.44 ± 0.5.
Regarding SAARVVLTSLLACLPAGPRVYFLK [DUSP5], the protein stability index reads like this: under setting [1], 2.43 ± 0.23; under setting [2], 2.41 ± 0.12.
The matching figures for SAFADIIHSLKESGQLWLDAYLHQ [FADS1]: 2.16 ± 0.4 and 2.25 ± 0.49.
The matching figures for SATLSWKQPPLSTVPADGYILELD [TRIM9]: 3.52 ± 0.33 and 3.63 ± 0.37.
The like results for SCTPRMNRRMVGPDVIPLPHIYGA [FAM189A2] were, in that order, 2.23 ± 0.22 and 2.27 ± 0.2.
In the case of SDKETDIDDRYGDLDSRTDSDIPE [CDS1], the protein stability index reads like this: under setting [1], 5.54 ± 0.31; under setting [2], 5.43 ± 0.27.
As to SDLTLYLVVAVAAVSCVFLAFVIV [PCDHGA10], the protein stability index by setting is: under setting [1], 2.97 ± 0.61; under setting [2], 2.71 ± 0.5.
The matching figures for SDVIEYAKQKLDFFIRTSDSFDKF [PCMTD2]: 2.36 ± 0.22 and 2.48 ± 0.19.
The like results for SEADPQALLQAMKDLDGMDADILG [FBF1] were, in that order, 5.28 ± 0.25 and 5.16 ± 0.35.
The matching figures for SEEELAAATTSKEQEPIGTDLDAV [MYBL2]: 5.71 ± 0.19 and 5.58 ± 0.25.
Consider SEEIRFYQLGEEAMEKFREDEGFL [KCNA3], for which the protein stability index reads like this: under setting [1], 4.37 ± 0.27; under setting [2], 4.44 ± 0.12.
Regarding SEMEEEKRQAVNKAVANMQGEMDR [ZMYND11], the protein stability index amounted to 5.41 ± 0.25 under setting [1] and 5.42 ± 0.29 under setting [2].
In the case of SESNSATVEEPPTDPIPEDEKKE [SMARCE1], the protein stability index came out at 5.58 ± 0.47 (treatment: DMSO, c terminus: native) and 5.41 ± 0.1 (treatment: MLN4924 1 uM, 8 h, c terminus: native).
In the case of SFCHGSSLKRHLKTHTGEKPHRCH [ZNF449], the protein stability index by setting is: under setting [1], 3.45 ± 0.27; under setting [2], 3.61 ± 0.34.
The matching figures for SFPPSLSSSSSSSPTSGSPRGSHS [LURAP1L]: 4.96 ± 0.2 and 5.01 ± 0.16.
The like results for SFTSSDKTIKSFFPHSGKDCLLCF [C8orf76] were, in that order, 2.47 ± 0.51 and 1.9 ± 0.44.
The matching figures for SGLDSPSHAAPGPSPDSWVPRPGT [FCHO1]: 4.08 ± 0.18 and 4.25 ± 0.19.
For the sequence SGREHNFTRPNEKGEYEVAEGIGS [BTBD10], the protein stability index is 5.11 ± 0.25 under setting [1] and 4.99 ± 0.33 under setting [2].
The like results for SGRTQAQTRRASALIDRPAPYFER [EPB41L3] were, in that order, 3.5 ± 0.56 and 3.72 ± 0.36.
In the case of SGSLEILQLLLGCKARMERDGYGM [FEM1A], the protein stability index by setting is: under setting [1], 2.92 ± 0.51; under setting [2], 3.05 ± 0.6.
As to SGVCLFAVFIALLPILGHRDYKIQ [PTGFR], the protein stability index reads like this: under setting [1], 3.6 ± 0.45; under setting [2], 3.37 ± 0.12.
The like results for SHSASATGNVCIEEIDVDGKFIRL [LMNB1] were, in that order, 3.14 ± 0.22 and 3.48 ± 0.23.
The like results for SHSCYHDTRSGFWYVCRTQGVEGD [TRIM35] were, in that order, 2.52 ± 0.27 and 2.36 ± 0.29.
The like results for SIGLRDYAGNLHESGVHGALLALD [PPFIA4] were, in that order, 3.48 ± 0.11 and 3.73 ± 0.45.
Take SKAKKLVCNINKGCGYGCQLHHVV [FUT8]: the protein stability index worked out at 2.71 ± 0.43 under setting [1] and 2.19 ± 0.4 under setting [2].
The like results for SKKEGKRQGPKEPPRKSGSFHSSG [PBXIP1] were, in that order, 4.98 ± 0.32 and 5.2 ± 0.2.
Consider SKSGYLRYSCESRIRSYLREVSSY [DFFB], for which the protein stability index was 2.1 ± 0.17 under setting [1] and 2.34 ± 0.37 under setting [2].
The matching figures for SLFSPVTEDSPLGTVVALLNVHDL [PCDHGA10]: 2.31 ± 0.2 and 2.32 ± 0.3.
The like results for SLKLASSELERLIVPNSNGVITTT [JUNB] were, in that order, 3.24 ± 0.41 and 3.4 ± 0.54.
The matching figures for SLLCLLCSNSQEHGAHKHHPIEEA [TRIM43]: 2.67 ± 0.2 and 2.77 ± 0.21.
SLVRDTIARVHGTFGAAACSIGFA [POP5]: the protein stability index runs as follows: under setting [1], 2.31 ± 0.38; under setting [2], 2.48 ± 0.22.
The like results for SMPVRLLGHSPVLRNITNSQAPDG [CDC25B] were, in that order, 3.23 ± 0.22 and 3.4 ± 0.24.
The like results for SPEIMASVLNGKFANLIKEFVIID [CDC25A] were, in that order, 2.47 ± 0.29 and 2.23 ± 0.19.
For SPFAQFACDNGLNVRGGKPDDITV [PPTC7], the protein stability index stood at 4.22 ± 0.23 under setting [1] and 4.14 ± 0.16 under setting [2].
The matching figures for SPFSVHPKTGRISVPIDLQKVDQF [PRIM1]: 3.18 ± 0.59 and 3.42 ± 0.37.
The matching figures for SPLQTIGEEQTQNPYTELLVLKAH [WDR41]: 3.78 ± 0.078 and 3.75 ± 0.3.
The like results for SQIETLTSVFQKKLCTAHMCSTLE [MATN2] were, in that order, 2.03 ± 0.2 and 2.81 ± 0.74.
SQSLWNRLSVLLNLLPAAGELQES [SMG5]: the protein stability index is, setting by setting: under setting [1], 2.75 ± 0.37; under setting [2], 2.25 ± 0.18.
The like results for SQVSWEQDLKLFLQEPGVFSPTPP [FCHSD1] were, in that order, 3.36 ± 0.4 and 3.61 ± 0.1.
The like results for SQWDVLSGDCDQRFRFPSPILKVQ [RBBP5] were, in that order, 3.34 ± 0.14 and 3.38 ± 0.32.
The like results for SRFYEIHARARDQGQPAMEGHCVI [PCDHGC5] were, in that order, 2.82 ± 0.27 and 2.54 ± 0.15.
For SRNEFDRTIAETEAAYLKILESSQ [SSNA1], the protein stability index under setting [1] turned out to be 3.95 ± 0.22 and the protein stability index under setting [2] came to 4.04 ± 0.34.
The like results for SRRSMAHILKARKVLTEPEVRYYL [PLK2] were, in that order, 2.48 ± 0.35 and 2.43 ± 0.15.
The like results for SRRSYDDQLRSGSPPKSPRTTVHD [DNAJC4] were, in that order, 4.89 ± 0.31 and 4.98 ± 0.23.
The matching figures for SSAGGAKAGQPESRALALFDIQKI [ZNF8]: 3.99 ± 0.52 and 4.26 ± 0.26.
For the sequence SSFNFFVFFFIFFVQDVLFVLQAI [SCAMP3], the protein stability index amounted to 3.17 ± 0.26 under setting [1] and 3.18 ± 0.28 under setting [2].
On to SSGKLICSRTTGYQILTLEKDQEQ [GMCL1], for which the protein stability index reads like this: under setting [1], 3.94 ± 0.46; under setting [2], 4.37 ± 0.28.
The matching figures for SSIPRRDDFFRHESGEHFRSLLGY [RAD54B]: 2.65 ± 0.21 and 2.57 ± 0.33.
The like results for SSSKWQRRDYLLLVMEGTDDGRLL [APMAP] were, in that order, 2.88 ± 0.43 and 2.32 ± 0.39.
The like results for SSTPDSTEGGNDDSDFRELHTARE [RTN2] were, in that order, 5.41 ± 0.29 and 5.53 ± 0.21.
On to SSYYKFKLTREVLSLFVQKLGNLM [ZER1], for which the protein stability index worked out at 2.83 ± 0.45 under setting [1] and 2.6 ± 0.36 under setting [2].
For the sequence STLGGDIRESDPEQAPAPGEATAA [TBX6], the protein stability index by setting is: under setting [1], 5.65 ± 0.14; under setting [2], 5.53 ± 0.38.
STQTKKLSASSPRMLHRSTQTTND [ZMYND11]: the protein stability index by setting is: under setting [1], 4.71 ± 0.54; under setting [2], 5.15 ± 0.17.
The matching figures for STSGQPYPTSDQEGDPGSKQPRKK [LCOR]: 5.5 ± 0.13 and 5.42 ± 0.19.
The matching figures for SVGSYLDTLADDVPGHQTPSDLDQ [LURAP1L]: 5.28 ± 0.23 and 5.34 ± 0.24.
The sequence SVSRFFADSGADPKGEPGSKQSPP [FBF1] had a protein stability index under setting [1] of 5.09 ± 0.2 and a protein stability index under setting [2] of 5.14 ± 0.14.
Regarding SVVDHPMPEERASKYENYFSASER [HESX1], the protein stability index by setting is: under setting [1], 4.73 ± 0.37; under setting [2], 4.76 ± 0.17.
The like results for SVYAWGGGLGTPLRLPMLNTEVVQ [NEK8] were, in that order, 2.63 ± 0.39 and 2.69 ± 0.32.
In the case of SVYVKLAGEREDLWAGSKGKEFGY [MIA2], the protein stability index stood at 2.52 ± 0.23 under setting [1] and 2.85 ± 0.15 under setting [2].
The matching figures for SWLDVQVSNTYVKQKTSAALSTMG [TPD52L3]: 2.79 ± 0.27 and 2.47 ± 0.22.
The like results for SWSALWNITDETPDNCEMFLNFNG [ZER1] were, in that order, 2.61 ± 0.25 and 2.79 ± 0.23.
Regarding SYCPHCGEESSKAKEVTIAKADTT [EHMT1], the protein stability index reads like this: under setting [1], 4.27 ± 0.19; under setting [2], 4.58 ± 0.19.
The like results for SYQEEAAMELKVEDPFYWVSPGVL [MOG] were, in that order, 3.25 ± 0.5 and 3.28 ± 0.13.
The like results for SYRETRRKEGIVKLKPHEEPLRSE [PTPN9] were, in that order, 4.66 ± 0.079 and 4.73 ± 0.3.

Values taken from the supplement of paper PMC10567573.
